Target: GST-hAKT2 (human, UniProt P31751 1-481)
Test: pull-down

GST-hAKT2, sequence (P31751 whole entry): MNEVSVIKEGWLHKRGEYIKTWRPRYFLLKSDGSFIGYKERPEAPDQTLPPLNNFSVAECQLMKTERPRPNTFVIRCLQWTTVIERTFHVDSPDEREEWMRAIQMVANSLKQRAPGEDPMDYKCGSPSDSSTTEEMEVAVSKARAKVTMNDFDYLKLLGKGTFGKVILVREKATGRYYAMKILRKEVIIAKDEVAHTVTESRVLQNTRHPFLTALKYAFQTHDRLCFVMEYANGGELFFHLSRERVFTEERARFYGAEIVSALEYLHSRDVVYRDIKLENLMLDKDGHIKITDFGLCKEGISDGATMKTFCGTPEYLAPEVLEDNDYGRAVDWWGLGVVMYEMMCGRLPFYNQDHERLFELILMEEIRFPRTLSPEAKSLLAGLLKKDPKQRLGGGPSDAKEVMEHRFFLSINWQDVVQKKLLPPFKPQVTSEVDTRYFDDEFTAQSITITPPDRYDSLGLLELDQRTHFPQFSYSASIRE

B1: 6*His-hIRF3 (natural protein)
chain: MGTPKPRILPWLVSQLDLGQLEGVAWVNKSRTRFRIPWKHGLRQDAQQEDFGIFQAWAEATGAYVPGRDKPDLPTWKRNFRSALNRKEGLRLAEDRSKDPHDPHKIYEFVNSGVGDFSQPDTSPDTNGGGSTSDTQEDILDELLGNMVLAPLPDPGPPSLAVAPEPCPQPLRSPSLDNPTPFPNLGPSENPLKRLLVPGEEWEFEVTAFYRGRQVFQQTISCPEGLRLVGSEVGDRTLPGWPVTLPDPGMSLTDRGVMSYVRHVLSCLGGGLALWRAGQWLWAQRLGHCHTYWAVSEELLPNSGHGPDGEVPKDKEGGVFDLGPFIVDLITFTEGSGRSPRYALWFCVGESWPQDQPWTKRLVMVKVVPTCLRALVEMARVGGASSLENTVDLHISNSHPLSLTSDQYKAYLQDLVEGMDFQGPGES
Does B1 bind?
Result: binds

Source: publication PMC8922272 (The EMBO Journal, 2022)
